Assay results taken from article PMC3792862, “Structure of UreG/UreF/UreH Complex Reveals How Urease Accessory Proteins Facilitate Maturation of Helicobacter pylori Urease” (PLoS Biology, 2013).

T1: UreH (Helicobacter pylori, UniProt Q09067 1-265)
T1 construct: UreH, urease accessory protein of Helicobacter pylori; The UreH chain of m6 to m9; also called UreH (ortholog of UreD)
T1 sequence: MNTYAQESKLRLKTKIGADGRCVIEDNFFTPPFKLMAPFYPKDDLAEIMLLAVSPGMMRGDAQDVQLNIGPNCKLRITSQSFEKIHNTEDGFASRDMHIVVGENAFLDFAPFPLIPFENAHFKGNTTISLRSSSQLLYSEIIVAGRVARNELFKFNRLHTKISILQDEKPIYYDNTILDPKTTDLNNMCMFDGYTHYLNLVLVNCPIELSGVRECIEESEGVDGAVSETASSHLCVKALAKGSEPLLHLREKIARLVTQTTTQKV

T2: HisGST-UreF/UreH complex (Helicobacter pylori, UniProt Q09065 1-254; Q09067 1-265)
T2 construct: UreF, urease accessory protein of Helicobacter pylori; UreH, urease accessory protein of Helicobacter pylori; also called wild-type HisGST-UreF (with UreH)
T2 sequence 1: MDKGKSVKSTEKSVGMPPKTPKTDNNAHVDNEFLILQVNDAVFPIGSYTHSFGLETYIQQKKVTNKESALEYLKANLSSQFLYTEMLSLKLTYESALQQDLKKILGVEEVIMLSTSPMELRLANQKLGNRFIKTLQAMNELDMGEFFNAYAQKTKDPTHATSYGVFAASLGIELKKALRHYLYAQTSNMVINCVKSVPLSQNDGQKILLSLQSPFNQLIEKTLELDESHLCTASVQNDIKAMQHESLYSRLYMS
T2 sequence 2: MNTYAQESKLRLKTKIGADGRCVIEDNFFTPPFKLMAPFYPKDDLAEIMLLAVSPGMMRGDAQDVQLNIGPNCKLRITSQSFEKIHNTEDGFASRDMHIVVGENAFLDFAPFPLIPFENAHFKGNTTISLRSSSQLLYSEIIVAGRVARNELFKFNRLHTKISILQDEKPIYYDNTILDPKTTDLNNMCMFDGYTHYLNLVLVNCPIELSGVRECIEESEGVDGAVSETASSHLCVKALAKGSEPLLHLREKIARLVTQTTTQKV

B1: UreF/UreH complex (complex)
chain 1: MDKGKSVKSTEKSVGMPPKTPKTDNNAHVDNEFLILQVNDAVFPIGSYTHSFGLETYIQQKKVTNKESALEYLKANLSSQFLYTEMLSLKLTYESALQQDLKKILGVEEVIMLSTSPMELRLANQKLGNRFIKTLQAMNELDMGEFFNAYAQKTKDPTHATSYGVFAASLGIELKKALRHYLYAQTSNMVINCVKSVPLSQNDGQKILLSLQSPFNQLIEKTLELDESHLCTASVQNDIKAMQHESLYSRLYMS
chain 2: MNTYAQESKLRLKTKIGADGRCVIEDNFFTPPFKLMAPFYPKDDLAEIMLLAVSPGMMRGDAQDVQLNIGPNCKLRITSQSFEKIHNTEDGFASRDMHIVVGENAFLDFAPFPLIPFENAHFKGNTTISLRSSSQLLYSEIIVAGRVARNELFKFNRLHTKISILQDEKPIYYDNTILDPKTTDLNNMCMFDGYTHYLNLVLVNCPIELSGVRECIEESEGVDGAVSETASSHLCVKALAKGSEPLLHLREKIARLVTQTTTQKV
notes: UreF, urease accessory protein of Helicobacter pylori; UreH, urease accessory protein of Helicobacter pylori (ortholog of UreD); also called (UreF/UreH)2; wild-type UreF/UreH complex; copies: 2 + 2
B2: UreF (natural protein)
chain: MDKGKSVKSTEKSVGMPPKTPKTDNNAHVDNEFLILQVNDAVFPIGSYTHSFGLETYIQQKKVTNKESALEYLKANLSSQFLYTEMLSLKLTYESALQQDLKKILGVEEVIMLSTSPMELRLANQKLGNRFIKTLQAMNELDMGEFFNAYAQKTKDPTHATSYGVFAASLGIELKKALRHYLYAQTSNMVINCVKSVPLSQNDGQKILLSLQSPFNQLIEKTLELDESHLCTASVQNDIKAMQHESLYSRLYMS
notes: UreF, urease accessory protein of Helicobacter pylori; The UreF chain of m6, for the rows of two chains that touch; also called UreF protomer; UreF chain A

What was measured:
[1] = target: the molecule itself; assay: SEC-MALS; SEC/SLS; 40 µM UreG/UreF/UreH complex pre-incubated with 0.5 mM nickel and 1 mM GTP (2 mM magnesium sulfate); Superdex 200, phosphate-buffered saline; peaks analysed by SDS-PAGE
UreH = target: T1, UreH; assay: crystal structure; UreG/UreF/UreH complex with 5 mM GDP, 10 mM magnesium sulfate, 5 mM aluminum fluoride; 1.5 M ammonium sulfate, 100 mM sodium acetate pH 5.0, 16°C; GDP-bound state, 2.35 Å; conditions: both partners purified
[2] = target: the molecule itself; assay: as above
UreF = target: B2; assay: as above; conditions: both partners purified
UreF/UreH complex = target: B1; assay: as above; conditions: both partners purified
HisGST-UreF/UreH complex = target: T2, HisGST-UreF/UreH complex; assay: pull-down; purified GST-UreF/UreH and excess UreG on GST SpinTrap, 30 min at 4°C; immobilised complex incubated with 1 mM GTP and 2 mM magnesium sulfate, washed with buffer C, eluted with glutathione; SDS-PAGE of wash and eluate; conditions: both partners purified

| Binder | stoichiometry N [1] | binding result (UreH) | binding result [2] | binding result (UreF) | binding result (UreF/UreH complex) | binding result (HisGST-UreF/UreH complex) |
| --- | --- | --- | --- | --- | --- | --- |
| B1 | 2 | – | – | – | – | – |
| B2 | – | binds | binds | – | – | – |
| UreG (natural protein, UreG, urease accessory protein (SIMIBI class GTPase) of Helicobacter pylori; Monomer in solution unless nickel and GTP (or free zinc) are present; two copies in the crystal of the UreG/UreF/UreH complex; also called apo-UreG; wild-type UreG; source: E. coli, purified (HisTrap, tag cleaved with SENP1C, second HisTrap, Superdex 75; dialysed with 5 mM EDTA)) MVKIGVCGPVGSGKTALIEALTRHMSKDYDMAVITNDIYTKEDAEFMCKNSVMPRERIIGVETGGCPHTAIREDASMNLEAVEEMHGRFPNLELLLIESGGDNLSATFNPELADFTIFVIDVAEGDKIPRKGGPGITRSDLLVINKIDLAPYVGADLKVMERDSKKMRGEKPFIFTNIRAKEGLDDVIAWIKRNALLED | 2 | – | – | binds | binds | binds |
